Measured values: patent US20160340422A1 (BEIJING HANMI PHARMACEUTICAL, published 2016)

Assays:
[1] = target: Human IL-17A (human, UniProt Q16552 24-155); assay: cell-based or functional assay
[2] = target: T1, Mouse IL-17A (mouse, UniProt Q62386 26-158, limits assumed); assay: ELISA, coated mouse IL-17A, HRP anti-mouse IgG
T1 construct: Bought recombinant protein; also called mice IL-17A
T1 sequence (looked up): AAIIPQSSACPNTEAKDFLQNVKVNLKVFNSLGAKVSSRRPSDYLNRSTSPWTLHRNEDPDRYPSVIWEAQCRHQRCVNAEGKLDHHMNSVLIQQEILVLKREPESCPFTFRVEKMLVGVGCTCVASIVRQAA
Method: The plated is blocked with PBST comprising 1% BSA, 300 μL/well, and incubated at 25° C. for at least 1 hour. The plate is washed with PBST for 5 times. Samples to be tested is added at a specific concentration, which are diluted in PBST comprising 1% BSA, 100 μL/well, and incubated at 25° C. for 1 hour. The plate is washed with PBST for 5 times. Then a horse radish peroxidase labeled anti-mouse IgG antibody (1:10,000, in PEST comprising 1% BSA) (Abeam, product No. Ab7068) is added, 100 U L/well, and incubated at 25° C. for 1 hour. The plate is washed with PBST for 5 times. […] 1M H₂SO₄is added with 100 μL/well to terminate the colorimetric development. The Absorbance at 450 nm is read on ELISA.

Human IL-17A, sequence (Q16552 24-155 limits assumed): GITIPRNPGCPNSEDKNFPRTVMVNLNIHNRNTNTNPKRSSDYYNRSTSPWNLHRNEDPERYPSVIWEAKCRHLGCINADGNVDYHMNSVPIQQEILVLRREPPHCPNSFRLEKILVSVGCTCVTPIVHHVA

B1: Control antibody A (antibody, mouse IgG2a, kappa, V domains shown)
VH: QVQLKESGPGLVQPSQTLSLTCTVSGFSLTNYYVHWVRQPPGKGLEWMGGVWNDGDTSYNSVLRSRLSITRDTSKSQVLLKMSSLQTEDTATYYCAREGREGFVGYYVMDAWGPGASVTVSS
VL: DIQMTQSPSFLSASVGERVTLSCKASQNINKYLDWFQQKLGEAPKLLIYNADNLHTGIPSRFSGSGSFSDFILTISSLQPEDDATYFCLQRESWPYTFGAGTKLELKR
notes: Corresponds to the anti-IL-17A antibody moiety of bifunctional fusion proteins A and C; also called anti-IL-17A antibody (rat 1D10 variable region, mouse IgG2a constant region); anti-IL-17A mAb
- IC50 for inhibiting GROα secretion from HT-29 cells induced by IL-17A [1]: 0.532 nM
- binding result [2]: binds
